# Source: patent US20180155451A1 (published 2018)
# T1: FcγRIIb (human, UniProt P31994 43-217)
# T1 construct: extracellular domain; also called FcgRIIb; 2b; not shown: His tag at the C terminus
# T1 sequence (looked up): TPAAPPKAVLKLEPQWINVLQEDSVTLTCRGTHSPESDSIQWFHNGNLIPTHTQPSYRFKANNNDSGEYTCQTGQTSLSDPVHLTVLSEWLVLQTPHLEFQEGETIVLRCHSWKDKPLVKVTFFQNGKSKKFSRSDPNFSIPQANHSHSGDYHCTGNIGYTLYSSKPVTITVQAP
# B1: GpH7-A5/GpH7-B3 variant Q295_15Y/GpL16-k0 (antibody, human IgG1, kappa)
# heavy 1: not shown
# heavy 2: not shown
# light: DIVMTQSPLSLPVTPGEPASISCQASESLVHSNRNTYLHWYLQKPGQSPQLLIYKVSNRFSGVPDRFSGSGSGTDFTLKISRVEAEDVGVYYCSQNTHVPPTFGQGTKVEIERTVAAPSVFIFPPSDEQLKSGTASVVCLLNNFYPREAKVQWKVDNALQSGNSQESVTEQDSKDSTYSLSSTLTLSKADYEKHKVYACEVTHQGLSSPVTKSFNRGEC
# notes: He Ab: mutation only in the GpH7-B3 H chain; EU numbering; also called He Ab
# B2: GpH7-A5/GpH7-B3 variant S298_10E/GpL16-k0 (antibody, human IgG1, kappa)
# heavy 1: not shown
# heavy 2: not shown
# light: B1 light
# notes: as for B1
# B3: GpH7-A5/GpH7-B3 variant Q295_18N/GpL16-k0 (antibody, human IgG1, kappa)
# heavy 1: not shown
# heavy 2: not shown
# light: B1 light
# notes: as for B1
# B4: GpH7-A5/GpH7-B3 variant Q295_11K/GpL16-k0 (antibody, human IgG1, kappa)
# heavy 1: not shown
# heavy 2: not shown
# light: B1 light
# notes: as for B1
# B5: GpH7-A5/GpH7-B3 variant Q295_12R/GpL16-k0 (antibody, human IgG1, kappa)
# heavy 1: not shown
# heavy 2: not shown
# light: B1 light
# notes: as for B1
# B6: GpH7-A5/GpH7-B3 variant Y296_16H/GpL16-k0 (antibody, human IgG1, kappa)
# heavy 1: not shown
# heavy 2: not shown
# light: B1 light
# notes: as for B1
# B7: GpH7-A5/GpH7-B3 variant Y296_14T/GpL16-k0 (antibody, human IgG1, kappa)
# heavy 1: not shown
# heavy 2: not shown
# light: B1 light
# notes: as for B1
# B8: GpH7-A5/GpH7-B3 variant Q295_13S/GpL16-k0 (antibody, human IgG1, kappa)
# heavy 1: not shown
# heavy 2: not shown
# light: B1 light
# notes: as for B1
# B9: GpH7-A5/GpH7-B3 variant Q295_10E/GpL16-k0 (antibody, human IgG1, kappa)
# heavy 1: not shown
# heavy 2: not shown
# light: B1 light
# notes: as for B1
# B10: GpH7-A5/GpH7-B3 variant Y296_09D/GpL16-k0 (antibody, human IgG1, kappa)
# heavy 1: not shown
# heavy 2: not shown
# light: B1 light
# notes: as for B1
# B11: GpH7-A5/GpH7-B3 variant Y296_08L/GpL16-k0 (antibody, human IgG1, kappa)
# heavy 1: not shown
# heavy 2: not shown
# light: B1 light
# notes: as for B1
# B12: GpH7-A5/GpH7-B3 variant S298_12R/GpL16-k0 (antibody, human IgG1, kappa)
# heavy 1: not shown
# heavy 2: not shown
# light: B1 light
# notes: as for B1
# B13: GpH7-A5/GpH7-B3 variant Y296_18N/GpL16-k0 (antibody, human IgG1, kappa)
# heavy 1: not shown
# heavy 2: not shown
# light: B1 light
# notes: as for B1
# B14: GpH7-A5/GpH7-B3 variant Y296_19Q/GpL16-k0 (antibody, human IgG1, kappa)
# heavy 1: not shown
# heavy 2: not shown
# light: B1 light
# notes: as for B1
# B15: GpH7-A5/GpH7-B3 variant Y296_01G/GpL16-k0 (antibody, human IgG1, kappa)
# heavy 1: not shown
# heavy 2: not shown
# light: B1 light
# notes: as for B1
# B16: GpH7-A5/GpH7-B3 variant S298_15Y/GpL16-k0 (antibody, human IgG1, kappa)
# heavy 1: not shown
# heavy 2: not shown
# light: B1 light
# notes: as for B1
# B17: GpH7-A5/GpH7-B3 variant Y296_10E/GpL16-k0 (antibody, human IgG1, kappa)
# heavy 1: not shown
# heavy 2: not shown
# light: B1 light
# notes: as for B1
# B18: GpH7-A5/GpH7-B3 variant S298_16H/GpL16-k0 (antibody, human IgG1, kappa)
# heavy 1: not shown
# heavy 2: not shown
# light: B1 light
# notes: as for B1
# B19: GpH7-A5/GpH7-B3 variant Y296_02A/GpL16-k0 (antibody, human IgG1, kappa)
# heavy 1: not shown
# heavy 2: not shown
# light: B1 light
# notes: as for B1
# B20: GpH7-A5/GpH7-B3 variant S298_14T/GpL16-k0 (antibody, human IgG1, kappa)
# heavy 1: not shown
# heavy 2: not shown
# light: B1 light
# notes: as for B1
# B21: GpH7-A5/GpH7-B3 variant S298_02A/GpL16-k0 (antibody, human IgG1, kappa)
# heavy 1: not shown
# heavy 2: not shown
# light: B1 light
# notes: as for B1
# Target: T1, FcγRIIb
# Test: SPR (Biacore), captured antibody, soluble FcγR; relative to GpH7-A5/GpH7-B3/GpL16-k0
row,He/Con_2b,Binder
1,"65.4 relative, HeCon Ab = 100",B1
2,"47.6 relative, HeCon Ab = 100",B2
3,"64.9 relative, HeCon Ab = 100",B3
4,"70.4 relative, HeCon Ab = 100",B4
5,"65.2 relative, HeCon Ab = 100",B5
6,"92.2 relative, HeCon Ab = 100",B6
7,"88.2 relative, HeCon Ab = 100",B7
8,"56.9 relative, HeCon Ab = 100",B8
9,"94.8 relative, HeCon Ab = 100",B9
10,"98.9 relative, HeCon Ab = 100",B10
11,"82.3 relative, HeCon Ab = 100",B11
12,"57.8 relative, HeCon Ab = 100",B12
13,"91.5 relative, HeCon Ab = 100",B13
14,"89.3 relative, HeCon Ab = 100",B14
15,"79.3 relative, HeCon Ab = 100",B15
16,"61.4 relative, HeCon Ab = 100",B16
17,"98 relative, HeCon Ab = 100",B17
18,"63.5 relative, HeCon Ab = 100",B18
19,"82 relative, HeCon Ab = 100",B19
20,"77.9 relative, HeCon Ab = 100",B20
21,"73.4 relative, HeCon Ab = 100",B21

# Target: T2, FcγRIa (human, UniProt P12314 16-292)
# T2 construct: extracellular domain; also called FcgRI; 1a; not shown: His tag at the C terminus
# T2 sequence (P12314 16-292): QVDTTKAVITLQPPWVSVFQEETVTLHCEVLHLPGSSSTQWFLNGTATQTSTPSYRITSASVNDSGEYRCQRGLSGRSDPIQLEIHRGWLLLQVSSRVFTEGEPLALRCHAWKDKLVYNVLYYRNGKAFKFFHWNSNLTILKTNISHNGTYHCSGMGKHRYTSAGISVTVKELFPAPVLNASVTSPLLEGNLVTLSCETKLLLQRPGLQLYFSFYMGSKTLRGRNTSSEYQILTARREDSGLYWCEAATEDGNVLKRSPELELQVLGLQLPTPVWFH
# Test: as above
row,He/Con_1a,Binder
1,"102 relative, HeCon Ab = 100",B1
2,"108 relative, HeCon Ab = 100",B2
3,"102 relative, HeCon Ab = 100",B3
4,"101 relative, HeCon Ab = 100",B4
5,"100 relative, HeCon Ab = 100",B5
6,"106 relative, HeCon Ab = 100",B6
7,"105 relative, HeCon Ab = 100",B7
8,"102 relative, HeCon Ab = 100",B8
9,"103 relative, HeCon Ab = 100",B9
10,"106 relative, HeCon Ab = 100",B10
11,"104 relative, HeCon Ab = 100",B11
12,"109 relative, HeCon Ab = 100",B12
13,"106 relative, HeCon Ab = 100",B13
14,"112 relative, HeCon Ab = 100",B14
15,"103 relative, HeCon Ab = 100",B15
16,"107 relative, HeCon Ab = 100",B16
17,"106 relative, HeCon Ab = 100",B17
18,"109 relative, HeCon Ab = 100",B18
19,"103 relative, HeCon Ab = 100",B19
20,"107 relative, HeCon Ab = 100",B20
21,"107 relative, HeCon Ab = 100",B21
